Measurements reported in patent US9307782B2, “Mannanase produced from Cellulosimicrobium sp. strain HY-13” (Korea Research Institute of Bioscience and Biotechnology, priority 2011, dated 2016).
Marks after values point to notes of the source that are not given here.

Columns and labels:
mannanase = assay: Effect of metal ions and chemicals on mannanase activity; format: biochemical, Cellulosimicrobium sp. HY-13; conditions: for increase of catalytic activity of the mannanase / effect on the enzyme activity: pH 6.0, 50° C.
[1] = Analysis of degradation product (HPLC, LC-MS/MS); format: biochemical; conditions: substrate Ivory nut mannan; LC area %
Experimental: […] HPLC (high performance liquid chromatography) was performed by using Finnigan Surveyor™ Modular HPLC systems (Thermo Electron Co.) equipped with Asahipak NH2P-50 2D column (5 μm, 2.0×150 mm, Shodex) ran by Xcalibur software (version 1.3 SP2, Thermo Electron Co.). Elution buffer A (0.05% pomalus acid/sterilized water) and elution buffer B (acetonitrile and methanol (7:3) containing 0.05% pomalus acid) were used as moving phases. LC-MS/MS (liquid chromatography/tandem mass spectrometry) was performed by using Finnigan LCQ Advantage MAX ion trap mass spectrometer (Thermo Electron Co.).

[2] = Analysis of degradation product (HPLC, LC-MS/MS); format: biochemical; conditions: 1 μg recombinant mannanase, pH 6.0, 30° C., 12 hours, LC area %
Experimental: Mannooligomer (M2˜M5, 1 mg/100 μl each) and locust bean gum (1.4 mg/100 μl) were reacted in 50 mM sodium phosphate buffer (pH 6.0) containing 1 μg of the recombinant mannanase at 30° C. for 12 hours, followed by investigation of the hydrolysate. HPLC (high performance liquid chromatography) was performed by using Finnigan Surveyor™ Modular HPLC systems (Thermo Electron Co.) equipped with Asahipak NH2P-50 2D column (5 μm, 2.0×150 mm, Shodex) ran by Xcalibur software (version 1.3 SP2, Thermo Electron Co.). Elution buffer A (0.05% pomalus acid/sterilized water) and elution buffer B (acetonitrile and methanol (7:3) containing 0.05% pomalus acid) were used as moving phases. LC-MS/MS (liquid chromatography/tandem mass spectrometry) was performed by using Finnigan LCQ Advantage MAX ion trap mass spectrometer (Thermo Electron Co.).

[3] = Specific activity of mannanase (DNS reducing sugar assay); format: biochemical; conditions: pH 6.0, 50° C., 15 minutes
Experimental: To compare the mannanase activity to different matrixes, locust bean gum, ivory nut mannan and guar gum were used as matrixes and the activity of the purified mannanase to those matrixes were investigated.
The activity of β-1,4-mannanase was investigated by measuring the reduced amount of glucose isolated from locust bean gum using 3,5-dinitrosalicylic acid (DNS). At this time, D-mannose was used as a standard material. 0.5 Ml of a standard mixture composed of 0.5% locust bean gum was mixed with 0.05 Ml of an enzyme aqueous solution, followed by inducing biodegradation reaction in 50 mM sodium phosphate buffer (pH 6.0) at 50° C. for 15 minutes. The activity of the recombinated mannanase (1 IU) to the mannan substrate was defined as the amount of the protein necessary for the secretion of 1 μmol reducing sugar under the standard analysis condition. Chromogenic PNP-sugar derivative was used to measure another degrading activity of the said recombinated enzyme. The enzyme activity of the recombinated mannanase to the chromogenic substrate was measured under the same conditions as set for the analysis of β-1,4-mannanase activity. The activity of the recombinated mannanase (1 IU) to the PNP-sugar derivative was defined as the amount of the protein necessary for the production of 1 μmol PNP under the standard analysis condition.

[4] = metal ions 1 mM, 50 mM sodium phosphate buffer (pH 6.0), 50° C., 10 minutes, None = 100.0
[5] = metal ions 1 mM, chemicals 5 mM, 10 minutes
[6] = chemicals 5 mM, 50 mM sodium phosphate buffer (pH 6.0), 50° C., 10 minutes, None = 100.0
[7] = detergent 0.5%, 50 mM sodium phosphate buffer (pH 6.0), 50° C., 10 minutes, None = 100.0

Question: For `[Ba+2].[Cl-].[Cl-]` [BaCl2], which “Relative activity (%)” value (mannanase; [4]) is on record?
Answer: Its value is 118.5%.

Question: And the “increase of catalytic activity of the mannanase” value (“increase” for short) (mannanase; metal ions 1 mM, 10 minutes)?
Answer: Its value is “approximately 1.2 fold”.

Question: With `[Ca+2].[Cl-].[Cl-]` [CaCl2] as the molecule, how does the “Relative activity (%)” value (mannanase; [4]) read?
Answer: The value was 146.9%.

Question: And the “increase” value (mannanase; metal ions 1 mM, 10 minutes)?
Answer: Its value is “at least 1.4 fold”.

Question: Which “Relative activity (%)” value (mannanase; pH 6) does the source give for `[Cl-].[Cl-].[Co+2]` [CoCl2] here?
Answer: Its value is 111.9%.

Question: Which “Relative activity (%)” value (mannanase; [4]) does the source give for `[Cl][Cu][Cl]` [CuCl2] here?
Answer: Its value is 16.7%.

Question: For `O=C(O)CN(CCN(CC(=O)O)CC(=O)O)CC(=O)O` [EDTA], which “Relative activity (%)” value (mannanase; pH 6) is on record?
Answer: Its value is 19.0%.

Question: With `O=S(=O)([O-])[O-].[Fe+2]` [FeSO4] as the molecule, how does the “Relative activity (%)” value (mannanase; [4]) read?
Answer: Its value is 42.2%.

Question: Which results are given for `[Cl][Hg][Cl]` [HgCl2]?
Answer: effect on the enzyme activity (mannanase; [5]): inactivated; Relative activity (%) (mannanase; [4]): 0%

Question: Which “effect on the enzyme activity” value (mannanase; [5]) does the source give for `O=S(=O)([O-])[O-].[Mg+2]` [MgSO4] here?
Answer: The value was “no effect”.

Question: What about the “Relative activity (%)” value (mannanase; [4]) of the same molecule?
Answer: Its value is 99.9%.

Question: With `[Cl][Mn][Cl]` [MnCl2] as the molecule, how does the “Relative activity (%)” value (mannanase; [4]) read?
Answer: Its value is 125.2%.

Question: And the “increase” value (mannanase; metal ions 1 mM, 10 minutes)?
Answer: Its value is “approximately 1.2 fold”.

Question: With `O=C1CCC(=O)N1Br` [N-Bromosuccinimide] as the molecule, how does the “Relative activity (%)” value (mannanase; [6]) read?
Answer: The value was 0%.

Question: What about the “effect on the enzyme activity” value (mannanase; [5]) of the same molecule?
Answer: Its value is “inactivated”.

Question: For `CCN1C(=O)C=CC1=O` [N-Ethylmaleimide], which “Relative activity (%)” value (mannanase; [6]) is on record?
Answer: Its value is 121.4%.

Question: For `O=S(=O)([O-])[O-].[Ni+2]` [NiSO4], which “Relative activity (%)” value (mannanase; [4]) is on record?
Answer: The value was 67.1%.

Question: For `NC(=O)CI` [Odoacetamide], which “Relative activity (%)” value (mannanase; [6]) is on record?
Answer: The value was 113.3%.

Question: What does the source list for `[Cl][Sn][Cl]` [SnCl2]?
Answer: effect on the enzyme activity (mannanase; [5]): no effect; Relative activity (%) (mannanase; [4]): 103.7%

Question: With `CCCCCCCC/C=C\CCCCCCCC(=O)OCCOCC(OCCO)C1OCC(OCCO)C1OCCO` (stereo not drawn) [Tween 80] as the molecule, how does the “Relative activity (%)” value (mannanase; [7]) read?
Answer: Its value is 103.5%.

Question: With `O=S(=O)([O-])[O-].[Zn+2]` [ZnSO4] as the molecule, how does the “Relative activity (%)” value (mannanase; [4]) read?
Answer: Its value is 47.4%.

Question: For Triton X-100, which “Relative activity (%)” value (mannanase; [7]) is on record?
Answer: The value was 98.9%.

B1: rManH: Recombinant GH5 β-1,4-mannanase of Cellulosimicrobium sp. HY-13 produced in E. coli; SEQ. ID. NO: 1; approximately 44 kDa (protein)
chain: MRRLFAIVLGAVLALLAVPALAQGASVASDGFSVQDGRIYDANGNRFVPVGVNHAHAWYPSQTQSFADIRAAGANTVRVVLSGGRYGTSSAADVSAVVERCKQNQLVCILENHDTTGYGEDGSARSLASAAQYWTSIASVLRGQERYVMINIGNEPFGNSGFQSWTTDTIAAIRTLRAAGLDHTLVVDAPNWGQDWSFTMRDNAPTVAAADGNVVFSVHMYGVFDTGAEVRAYLDSFTSRGLPIMVGEFGDNHSDGNPDEATIMSYTRSQGIGMLGWSWSGNGGGVEYLDMVNGFSASSLTPWGQRFVHGADGLRARNAPAASVYGGDGGDGDGGAGTAPNGYPYCASASSDPDGDGWGWESSASCVVRGSSADTGSGGGSGSGSTAPNGYPYCASASSDPDGDGWGWESSASCVVRGSSADR
modifications: cellulosimicrobium
notes: Recombinant GH5 β-1,4-mannanase of Cellulosimicrobium sp; HY-13 produced in E. coli; ID; NO: 1; approximately 44 kDa
Question: What does the source list for B1?
Answer: Composition (%) of products formed by hydrolysis reaction: M1 [1]: 3.3%; Composition (%) of products formed by hydrolysis reaction: M2 [1]: 17.5%; Composition (%) of products formed by hydrolysis reaction: M3 [1]: 13.9%; Composition (%) of products formed by hydrolysis reaction: M4 [1]: 25.2%; Composition (%) of products formed by hydrolysis reaction: M5 [1]: 19.7%; Composition (%) of products formed by hydrolysis reaction: M6 [1]: 12.9%; Composition (%) of products formed by hydrolysis reaction: M7 [1]: 7.5%; Composition (%) of products formed by hydrolysis reaction: M8 [1]: 2.9%; Composition (%) of products formed by hydrolysis reaction: M1 ([2]; substrate Locust bean gum): 1.1%; Composition (%) of products formed by hydrolysis reaction: M2 ([2]; substrate Locust bean gum): 6.4%; Composition (%) of products formed by hydrolysis reaction: M3 ([2]; substrate Locust bean gum): 1.5%; Composition (%) of products formed by hydrolysis reaction: M4 ([2]; substrate Locust bean gum): 7.4%; Composition (%) of products formed by hydrolysis reaction: M5 ([2]; substrate Locust bean gum): 44.2%; Composition (%) of products formed by hydrolysis reaction: M6 ([2]; substrate Locust bean gum): 16.1%; Composition (%) of products formed by hydrolysis reaction: M7 ([2]; substrate Locust bean gum): 21.4%; Composition (%) of products formed by hydrolysis reaction: M8 ([2]; substrate Locust bean gum): 1.9%; Composition (%) of products formed by hydrolysis reaction: M2 ([2]; substrate M2): 100.0%; Composition (%) of products formed by hydrolysis reaction: M1 ([2]; substrate M3): 3.5%; Composition (%) of products formed by hydrolysis reaction: M2 ([2]; substrate M3): 60.1%; Composition (%) of products formed by hydrolysis reaction: M3 ([2]; substrate M3): 31.6%; Composition (%) of products formed by hydrolysis reaction: M4 ([2]; substrate M3): 4.0%; Composition (%) of products formed by hydrolysis reaction: M5 ([2]; substrate M3): 0.8%; Composition (%) of products formed by hydrolysis reaction: M1 ([2]; substrate M4): 3.9%; Composition (%) of products formed by hydrolysis reaction: M2 ([2]; substrate M4): 55.5%; Composition (%) of products formed by hydrolysis reaction: M3 ([2]; substrate M4): 28.8%; Composition (%) of products formed by hydrolysis reaction: M4 ([2]; substrate M4): 9.9%; Composition (%) of products formed by hydrolysis reaction: M5 ([2]; substrate M4): 1.9%; Composition (%) of products formed by hydrolysis reaction: M1 ([2]; substrate M5): 4.1%; Composition (%) of products formed by hydrolysis reaction: M2 ([2]; substrate M5): 46.9%; Composition (%) of products formed by hydrolysis reaction: M3 ([2]; substrate M5): 21.8%; Composition (%) of products formed by hydrolysis reaction: M4 ([2]; substrate M5): 16.6%; Composition (%) of products formed by hydrolysis reaction: M5 ([2]; substrate M5): 7.9%; Composition (%) of products formed by hydrolysis reaction: M6 ([2]; substrate M5): 2.8%; Composition (%) of products formed by hydrolysis reaction: M7 ([2]; substrate M5): 0.9%; Specific activity ([3]; substrate Guar gum): 967 ± 18 IU mg^−1; Specific activity ([3]; substrate Insoluble ivory nut mannan): 14,711 ± 183 IU mg^−1; Specific activity ([3]; substrate Locust bean gum): 8,498 ± 105 IU mg^−1; Specific activity ([3]; toward insoluble ivory nut mannan): 14,711^c IU/mg; Specific activity ([3]; toward locust bean gum): 8,498^d IU/mg
